Source: article PMC9352680, “A comprehensive thermodynamic model for RNA binding by the Saccharomyces cerevisiae Pumilio protein PUF4”

T1: PUF4 RNA-binding domain (Saccharomyces cerevisiae, UniProt P25339 537-888)
T1 sequence: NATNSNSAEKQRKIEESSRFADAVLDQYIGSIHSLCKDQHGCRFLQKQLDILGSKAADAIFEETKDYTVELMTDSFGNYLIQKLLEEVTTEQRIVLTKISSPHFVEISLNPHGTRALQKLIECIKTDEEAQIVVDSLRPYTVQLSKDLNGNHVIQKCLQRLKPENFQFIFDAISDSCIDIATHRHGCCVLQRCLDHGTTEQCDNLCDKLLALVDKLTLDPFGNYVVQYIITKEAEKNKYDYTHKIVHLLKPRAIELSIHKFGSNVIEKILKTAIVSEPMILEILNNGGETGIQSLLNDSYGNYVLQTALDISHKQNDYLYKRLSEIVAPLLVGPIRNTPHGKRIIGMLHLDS

B1: Ib_S1_P4E.1_K4.1_C4.1_H4.1_A4.1_F4.1_[T8A]_[A9C]_T4.1 (ssRNA)
RNA: UCUCUUUGUAUAUACUCUCUU
B2: Ia_S1_P4E.1_K4.1_C4.1_H4.1_[G2C]_A4.1_F4.1_T4.1 (ssRNA)
RNA: UCUCUUUCUAUAUUAUCUCUU
B3: Ic_S2_P4E.1_K4.1_C4.1_H4.1_A4.1_[A6T]_[T7C]_F4.1_[T8C]_[A9C]_T4.1 (ssRNA)
RNA: UUUGAUUAAUAUGAUAUCGUUCUUUCUUGUAUUCCCUUCUUUCUCGAUAUCAUAUUAAUCUUU
B4: Ic_S2_P4E.1_K4.1_C4.1_H4.1_A4.1_[A6T]_[T7C]_F4.1_[A9C]_T4.1 (ssRNA)
RNA: UUUGAUUAAUAUGAUAUCGUUCUUUCUUGUAUUCUCUUCUUUCUCGAUAUCAUAUUAAUCUUU
B5: Ic_S2_P4E.1_K4.1_C4.1_H4.1_A4.1_[A6T]_F4.1_[T8C]_[A9C]_T4.1 (ssRNA)
RNA: UUUGAUUAAUAUGAUAUCGUUCUUUCUUGUAUUUCCUUCUUUCUCGAUAUCAUAUUAAUCUUU
B6: Ic_S2_P4E.1_K4.1_C4.1_H4.1_A4.1_[A6T]_F4.1_[T8G]_[A9C]_T4.1 (ssRNA)
RNA: UUUGAUUAAUAUGAUAUCGUUCUUUCUUGUAUUUGCUUCUUUCUCGAUAUCAUAUUAAUCUUU
B7: Ic_S2_P4E.1_K4.1_C4.1_H4.1_A4.1_[T7C]_F4.1_[T8G]_[A9C]_T4.1 (ssRNA)
RNA: UUUGAUUAAUAUGAUAUCGUUCUUUCUUGUAUACGCUUCUUUCUCGAUAUCAUAUUAAUCUUU
B8: Ic_S2_P4E.1_K4.1_C4.1_H4.1_A4.1_[T7C]_F4.1_[T8C]_[A9T]_T4.1 (ssRNA)
RNA: UUUGAUUAAUAUGAUAUCGUUCUUUCUUGUAUACCUUUCUUUCUCGAUAUCAUAUUAAUCUUU
B9: Ic_S2_P4E.1_K4.1_C4.1_H4.1_A4.1_[T7G]_F4.1_[T8C]_[A9C]_T4.1 (ssRNA)
RNA: UUUGAUUAAUAUGAUAUCGUUCUUUCUUGUAUAGCCUUCUUUCUCGAUAUCAUAUUAAUCUUU
B10: Ic_S2_P4E.1_K4.1_C4.1_H4.1_A4.1_[A6T]_F4.1_[T8C]_[A9T]_T4.1 (ssRNA)
RNA: UUUGAUUAAUAUGAUAUCGUUCUUUCUUGUAUUUCUUUCUUUCUCGAUAUCAUAUUAAUCUUU
B11: Ic_S2_P4E.1_K4.1_C4.1_H4.1_A4.1_[A6T]_[T7A]_F4.1_[T8C]_[A9G]_T4.1 (ssRNA)
RNA: UUUGAUUAAUAUGAUAUCGUUCUUUCUUGUAUUACGUUCUUUCUCGAUAUCAUAUUAAUCUUU
B12: Ic_S2_P4E.1_K4.1_C4.1_H4.1_A4.1_F4.1_T4.1 (ssRNA)
RNA: UUUGAUUAAUAUGAUAUCGUUCUUUCUUGUAUAUUAUUCUUUCUCGAUAUCAUAUUAAUCUUU
B13: Ic_S2_P4E.1_K4.1_C4.1_H4.1_A4.1_[A6T]_F4.1_[T8A]_[A9T]_T4.1 (ssRNA)
RNA: UUUGAUUAAUAUGAUAUCGUUCUUUCUUGUAUUUAUUUCUUUCUCGAUAUCAUAUUAAUCUUU
B14: Ic_S2_P4E.1_K4.1_C4.1_H4.1_A4.1_[T7C]_F4.1_[T8A]_[A9T]_T4.1 (ssRNA)
RNA: UUUGAUUAAUAUGAUAUCGUUCUUUCUUGUAUACAUUUCUUUCUCGAUAUCAUAUUAAUCUUU
B15: Ic_S2_P4E.1_K4.1_C4.1_H4.1_A4.1_[T7C]_F4.1_[T8C]_[A9C]_T4.1 (ssRNA)
RNA: UUUGAUUAAUAUGAUAUCGUUCUUUCUUGUAUACCCUUCUUUCUCGAUAUCAUAUUAAUCUUU
B16: Ic_S2_P4E.1_K4.1_C4.1_H4.1_A4.1_[A6T]_F4.1_[T8A]_[A9C]_T4.1 (ssRNA)
RNA: UUUGAUUAAUAUGAUAUCGUUCUUUCUUGUAUUUACUUCUUUCUCGAUAUCAUAUUAAUCUUU
B17: Ic_S2_P4E.1_K4.1_C4.1_H4.1_A4.1_[A6T]_[T7C]_F4.1_[T8A]_T4.1 (ssRNA)
RNA: UUUGAUUAAUAUGAUAUCGUUCUUUCUUGUAUUCAAUUCUUUCUCGAUAUCAUAUUAAUCUUU
B18: Ic_S2_P4E.1_K4.1_C4.1_H4.1_A4.1_[A6T]_[T7C]_F4.1_[T8A]_[A9G]_T4.1 (ssRNA)
RNA: UUUGAUUAAUAUGAUAUCGUUCUUUCUUGUAUUCAGUUCUUUCUCGAUAUCAUAUUAAUCUUU
B19: Ic_S2_P4E.1_K4.1_C4.1_H4.1_A4.1_[A6T]_[T7C]_F4.1_[T8A]_[A9T]_T4.1 (ssRNA)
RNA: UUUGAUUAAUAUGAUAUCGUUCUUUCUUGUAUUCAUUUCUUUCUCGAUAUCAUAUUAAUCUUU
B20: Ic_S2_P4E.1_K4.1_C4.1_H4.1_A4.1_[T7C]_F4.1_[T8A]_[A9C]_T4.1 (ssRNA)
RNA: UUUGAUUAAUAUGAUAUCGUUCUUUCUUGUAUACACUUCUUUCUCGAUAUCAUAUUAAUCUUU
B21: Ic_S2_P4E.1_K4.1_C4.1_H4.1_A4.1_[A6T]_[T7A]_F4.1_[A9G]_T4.1 (ssRNA)
RNA: UUUGAUUAAUAUGAUAUCGUUCUUUCUUGUAUUAUGUUCUUUCUCGAUAUCAUAUUAAUCUUU
B22: Ic_S2_P4E.1_K4.1_C4.1_H4.1_A4.1_[A6T]_[T7C]_F4.1_[T8A]_[A9C]_T4.1 (ssRNA)
RNA: UUUGAUUAAUAUGAUAUCGUUCUUUCUUGUAUUCACUUCUUUCUCGAUAUCAUAUUAAUCUUU
B23: Ic_S2_P4E.1_K4.1_C4.1_H4.1_A4.1_[A6T]_[T7A]_F4.1_[T8G]_[A9C]_T4.1 (ssRNA)
RNA: UUUGAUUAAUAUGAUAUCGUUCUUUCUUGUAUUAGCUUCUUUCUCGAUAUCAUAUUAAUCUUU

Target: T1, PUF4 RNA-binding domain
Experiment: Mg; RNA-MaP; 20 mM Na-HEPES pH 7.4, 30 mM KOAc, 0.75 mM MgCl2, 0.1% Tween-20, 5% glycerol, 0.1 mg/mL BSA, 2 mM DTT; 25 C; 0.0125-409.6 nM protein
Details: tags: N-His6-TEV cleaved; C-SNAP kept, Cy3B-labelled; label: tethered on chip by stalled RNA polymerase

Binder | Kd
B1 | 8.2 nM
B2 | 1380 nM
B3 | 162 nM
B4 | 12.7 nM
B5 | 52.7 nM
B6 | 195 nM
B7 | 55.7 nM
B8 | 15.8 nM
B9 | 53.8 nM
B10 | 21.7 nM
B11 | 93.7 nM
B12 | 0.224 nM
B13 | 9.81 nM
B14 | 16.4 nM
B15 | 31.3 nM
B16 | 106 nM
B17 | 201 nM
B18 | 350 nM
B19 | 89.9 nM
B20 | 60.4 nM
B21 | 4.55 nM
B22 | 595 nM
B23 | 685 nM
